From paper PMC3712912, “Dynactin Subunit p150^Glued Is a Neuron-Specific Anti-Catastrophe Factor” (PLoS Biology, 2013)
Where a chain is given by its changes, count along the chain named. Names and notes keep the numbering of the source.

Tests used:
[1] = molecular target: tubulin (soluble tubulin dimers, bovine brain) (bovine) (UniProt Q6B856)
[2] = molecular target: tubulin (soluble tubulin dimers, bovine brain) (bovine) (UniProt Q6B856); test: SEC; polypeptides incubated at the indicated molar ratio with 30 µM tubulin 10 min on ice; Superdex 200 10/300 GL, BRB20 pH 7.1 with 125 mM KCl and 10 mM imidazole (or increasing KCl, Figure 3C), eluted at 4 °C
[3] = molecular target: Taxol-stabilized microtubules (polymerized bovine brain tubulin) (bovine) (UniProt Q6B856); test: co-sedimentation; 0.4 µM dimeric constructs with increasing concentrations of Taxol-stabilized microtubules, 37 °C 20 min, centrifuged at 100 k rpm; supernatant and pellet by SDS-PAGE and densitometry
[4] = molecular target: T1, Taxol-stabilized microtubules (polymerized bovine brain tubulin) (bovine, UniProt Q6B856 1-445); test: co-sedimentation; 0.1 µM C-terminal GFP-tagged constructs with increasing concentrations of Taxol-stabilized microtubules, 37 °C 20 min, centrifuged; depletion from the supernatant monitored by fluorimetry; conditions: both partners purified
[5] = molecular target: the molecule itself; test: cross-linking; 0.5 µM dimeric constructs in BRB20 with 125 mM NaCl and 1 mM DTT, 0.5% glutaraldehyde on ice for 2 h; SDS-PAGE and colloidal Coomassie staining
[6] = molecular target: T1, Taxol-stabilized microtubules …; test: co-sedimentation; 0.4 µM dimeric constructs with increasing concentrations of Taxol-stabilized microtubules, 37 °C 20 min, centrifuged at 100 k rpm; supernatant and pellet by SDS-PAGE and densitometry; conditions: both partners purified

## p150 Nt-GCN4 (human p150Glued amino acids 1–210, GCN4 coiled-coil, linker, C-terminal 6×-His) (from UniProt Q14203-1 1-210) (domain or fragment)
[1]
  catastrophe frequency, TIRF elongation assay from GMPCPP seeds, 100–200 nM p150 Nt-GCN4 (fold reduction): 4 fold
  microtubule polymerization rate, TIRF elongation assay from GMPCPP seeds, 100–200 nM p150 Nt-GCN4: 2 fold
[2]
  stoichiometry N (p150∶tubulin molar ratio): 1

## Δ5–7 Nt-GCN4 (p150Glued amino acids 1–210 deleted for exons 5–7, GCN4 coiled-coil, linker, C-terminal 6×-His) (from UniProt Q14203-1 1-210) (domain or fragment)
[3]
  Kd: 470 nM

B1: p150 Nt with C-terminal EGFP-6×-His (domain or fragment, human)
chain: MAQSKRHVYSRTPSGSRMSAEASARPLRVGSRVEVIGKGHRGTVAYVGATLFATGKWVGVILDEAKGKNDGTVQGRKYFTCDEGHGIFVRQSQIQVFEDGADTTSPETPDSSASKVLKREGTDTTAKTSKLRGLKPKKAPTARKTTTRRPKPTRPASTGVAGASSSLGPSGSASAGELSSSEPSTPAQTPLAAPIIPTPVLTSPGAVPPLAAAADPPVAT
notes: p150Glued (DCTN1), human, amino acids 1-210, NM_004082.4; short linker, followed by EGFP-6×-His; also called C-terminal GFP-tagged monomeric construct; source: Rosetta E. coli, purified; not shown: EGFP, C-terminal, kept
[4]
  Kd: 890 nM

B2: p135 Nt-GCN4 (MMRQ, p150Glued amino acids 139–210, GCN4 coiled-coil, linker, C-terminal 6×-His) (domain or fragment)
chain: MMRQAPTARKTTTRRPKPTRPASTGVAGASSSLGPSGSASAGELSSSEPSTPAQTPLAAPIIPTPVLTSPGAVPPLVMKQLEDKVEELLSKNYHLENEVARLKKLVGEAAAADPPVAT
notes: N-terminal MMRQ replicating the endogenous expressed p135 spliceform of p150Glued (DCTN1); p150Glued (DCTN1), human, amino acids 139-210 of p150Glued, NM_004082.4; lacks the CAP-Gly domain and exon 5; short linker before the C-terminal 6×-His tag; Recapitulates the neuronally enriched p135 splice form; also called p135 dimer; source: Rosetta E. coli, purified (Ni Sepharose, Mono S, Superdex 200); …
[5]
  binding result: binds

B3: p150 Nt-GCN4 (human p150Glued amino acids 1–210, GCN4 coiled-coil, linker, C-terminal 6×-His) (domain or fragment)
chain: MAQSKRHVYSRTPSGSRMSAEASARPLRVGSRVEVIGKGHRGTVAYVGATLFATGKWVGVILDEAKGKNDGTVQGRKYFTCDEGHGIFVRQSQIQVFEDGADTTSPETPDSSASKVLKREGTDTTAKTSKLRGLKPKKAPTARKTTTRRPKPTRPASTGVAGASSSLGPSGSASAGELSSSEPSTPAQTPLAAPIIPTPVLTSPGAVPPLVMKQLEDKVEELLSKNYHLENEVARLKKLVGEAAAADPPVAT
notes: p150Glued (DCTN1), human, amino acids 1-210, NM_004082.4; holds the CAP-Gly and basic domains; short linker before the C-terminal 6×-His tag; Dimer through the GCN4 coiled-coil that replaces CC1 of p150Glued; vector pET-29a; also called dimeric p150 Nt-GCN4; p150 Nt-GCN4-His; source: Rosetta E. coli, purified (Ni Sepharose, Mono S, Superdex 200); not shown: His6, C-terminal, kept
[5]
  binding result: binds
[6]
  Kd: 290 nM

B4: p150 Nt-GCN4 with C-terminal EGFP-6×-His (domain or fragment)
chain: B3 chain
notes: p150Glued (DCTN1), human, amino acids 1-210, NM_004082.4; short linker, followed by EGFP-6×-His; also called C-terminal GFP-tagged dimeric construct; source: Rosetta E. coli, purified; not shown: EGFP, C-terminal, kept
[4]
  Kd: 340 nM

B5: Q74P Nt-GCN4 (p150 Nt-GCN4 with the Perry syndrome mutation Q74P) (domain or fragment)
chain: B3 chain with Q74P
notes: p150Glued (DCTN1), human, amino acids 1-210, NM_004082.4, with the disease mutation Q74P; short linker before the C-terminal 6×-His tag; also called Q74P p150 Nt-GCN4; source: Rosetta E. coli, purified immediately before experimentation with a final gel filtration step
[5]
  binding result: binds
